Measured values: patent US20230174616A1 (UNIVERSITY OF SOUTHERN CALIFORNIA, published 2023)
Primed or numbered codes have the meaning given here. Where no end group is shown, it is not given here. Side-chain parts run from the residue outwards. [ ]: non-standard residue; d: D form. triazole = 1,2,3-triazole formed by click reaction of the propargylglycine alkyne with ROX-azide; Pra′ = its azide, alkyne or alkene has reacted where a group follows in round brackets; ROX = carboxy-X-rhodamine, joined by click triazole

Tests used:
[1] = biological target: T1, biotinylated hPD-L1 (extracellular domain of human PD-L1, Ala18 to Thr239, expressed in E. coli, … (human, biotin on the epsilon-amino group of the Avi tag lysine (BirA))); experiment: fluorescence anisotropy, 100 nM ROX-SPAM titrated with hPD-L1
T1 construct: also called recombinant hPD-L1; non-glycosylated hPD-L1
Procedure: (§1) Each measurement was carried out in triplicate and the mean value was reported along with the standard deviation. […] The mean of the normalized binding for each incubation time is shown along with the standard deviation of the mean. Each measurement was carried out in triplicate and error bars show the standard deviation of the mean (Students t-test; p value <0.05 (*), <0.01 (**), <0.005 (***), <0.001 (****)).
(§2) The resulting values were plotted against the concentration of hPD-L1 or hPD-L1* and fit to a one-site saturation binding model with GraphPad Prism.

[2] = biological target: T2, hPD-L1* (recombinant glycosylated human PD-L1 ectodomain, A18-T239, expressed in Expi293F cells) (human, UniProt Q9NZQ7 18-239, N-glycosylated; Avi tag biotinylated in vitro with BirA); experiment: fluorescence anisotropy, 100 nM ROX-SPAM titrated with hPD-L1*
T2 construct: also called glycosylated hPD-L1
Procedure: as §1, §2

[3] = biological target: T2, hPD-L1* (recombinant glycosylated human …); experiment: fluorescence polarization, 100 nM ROX-SPAM with 2.4 nM-5 uM glycosylated hPD-L1*, 22 C (67 +/- 21 nM in paragraph 94); glycosylated hPD-L1*
Procedure: as §2
(§3) The fluorescence polarization of each sample was measured on a Synergy H4 Hybrid Multi-Mode Microplate Reader. Each measurement was carried out in triplicate and the mean value was calculated. The values were fit to a one-site saturation binding model in GraphPad Prism to obtain the corresponding equilibrium dissociation constants.

[4] = biological target: T1, biotinylated hPD-L1 (extracellular …); experiment: fluorescence polarization, 100 nM ROX-SPAM with 2.4 nM-5 uM non-glycosylated hPD-L1, 21 C (119 +/- 33 nM in paragraph 94); non-glycosylated, E. coli-expressed hPD-L1
Procedure: as §2, §3

EC50 (read off the curve) [1]: ~100 nM | EC50 (read off the curve) [2]: ~70 nM | Kd [3]: 67 nM | Kd [4]: 119 nM
B1: ROX-SPAM (carboxy-X-rhodamine labeled SPAM peptide) (peptide)
peptide: MPIFLDHILNKFWILHYASG[Pra′]([triazole-ROX])-NH2
modifications: also: ROX attached to Pra by click triazole
notes: Synthetic peptide used in fluorescence polarization; also called ROX-labeled SPAM
